Laboratory results reported in US10279017B2 (priority 2014, dated 2019).
Like-named read-outs stand apart in the source and are kept apart here.

Columns and labels:
[1] = system: human aortic smooth muscle cell (HASMC); conditions: coating containing GM6001 compared to metallic substrate only, cited from earlier work
[2] = target: T1, MMP2 (Homo sapiens, UniProt P08253); parameters: endogenous in cells; host or cells: human aortic smooth muscle cells (HASMC); conditions: GM6001 releasing coating vs metal substrate; cited from earlier work
T1 sequence (P08253 110-660): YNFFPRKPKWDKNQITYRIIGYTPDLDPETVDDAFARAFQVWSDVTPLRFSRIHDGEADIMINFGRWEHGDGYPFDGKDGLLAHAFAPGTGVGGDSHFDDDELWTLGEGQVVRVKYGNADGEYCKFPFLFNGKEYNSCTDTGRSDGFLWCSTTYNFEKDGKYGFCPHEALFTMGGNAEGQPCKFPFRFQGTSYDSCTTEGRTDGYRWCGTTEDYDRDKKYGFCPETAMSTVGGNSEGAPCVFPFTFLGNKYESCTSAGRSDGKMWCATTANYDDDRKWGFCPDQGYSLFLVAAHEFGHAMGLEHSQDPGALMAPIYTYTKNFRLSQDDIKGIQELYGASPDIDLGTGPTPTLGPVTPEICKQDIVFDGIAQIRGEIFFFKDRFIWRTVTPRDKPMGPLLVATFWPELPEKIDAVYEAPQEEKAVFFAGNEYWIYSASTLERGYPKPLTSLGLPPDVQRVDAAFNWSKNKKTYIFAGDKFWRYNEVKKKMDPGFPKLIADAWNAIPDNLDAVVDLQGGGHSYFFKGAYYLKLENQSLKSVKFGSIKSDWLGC

[3] = system: HASMCs; conditions: GM6001 released from PLGA coating compared to metallic substrate only; cited from earlier work
[4] = target: T2, pseudolysin (Pseudomonas aeruginosa, UniProt P14756); conditions: Cathgart G. R. et al, 2011; cited from earlier work
[5] = system: P. aeruginosa cultures VB7623; assay: growth curves (OD 600 nm) of clinical isolate; type: cell-based, Pseudomonas aeruginosa
Protocol: (§1) Gentamycin MIC (minimal inhibitory concentration) values were determined using a standard two fold microtiter broth dilution protocol with Nutrient Broth as medium. Midexponential phase cultures of P. aeruginosa reference strain DSM No.: 50071 and two antibiotic-resistant clinical isolates (P. aeruginosa VB7623 and VB7444), which were isolated from the tracheal secrete of a patient, were tested. Antimicrobial susceptibility testing of the clinical isolates was performed by the University Clinic Tubingen. […] Further, the OD (optical density) at 600 nm in the presence and absence of the insect metalloprotease inhibitor IMPI was investigated. For assessing influences of IMPI on bacterial growth final concentrations of IMPI between 20 and 75 μM were used. Bacterial growth was monitored at 37° C. over 48 h. All MIC values were done as triplicates.

[6] = system: P. aeruginosa (DSM No. 50071); assay: Gentamycin MIC determination, microtiter broth dilution; type: cell-based, Pseudomonas aeruginosa; conditions: reference strain DSM No. 50071, partially resistant to Gentamycin
Protocol: as §1

[7] = target: T3, MMP1 (Homo sapiens, UniProt P03956); conditions: cited from earlier work
T3 sequence (P03956 100-469): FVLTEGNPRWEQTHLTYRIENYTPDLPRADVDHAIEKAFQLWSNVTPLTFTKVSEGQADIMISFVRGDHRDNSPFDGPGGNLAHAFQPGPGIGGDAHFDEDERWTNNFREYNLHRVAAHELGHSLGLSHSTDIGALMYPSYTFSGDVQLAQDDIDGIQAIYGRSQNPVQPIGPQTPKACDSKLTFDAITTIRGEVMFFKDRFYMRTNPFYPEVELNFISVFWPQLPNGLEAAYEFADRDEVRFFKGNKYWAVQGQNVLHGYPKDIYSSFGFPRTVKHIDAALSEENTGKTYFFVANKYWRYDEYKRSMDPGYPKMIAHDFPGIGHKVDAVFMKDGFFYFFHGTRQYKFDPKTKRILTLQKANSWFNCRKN

[8] = system: Pseudomonas aeruginosa; assay: formation of freely suspended biofilm in flocs (FIG. 4); type: cell-based; conditions: incubated with IMPIα at 62.5 and 125 ng/ml Gm doses
Protocol: FIG. 4: The formation of freely suspended biofilm in flocs is a successful strategy used by Pseudomonas aeruginosa to overcome stressfull envionmental conditions (e.g. addition of Gentamicin Gm to buffer; Panel A (62.5 ng/ml) and B (125 ng/ml)).

[9] = system: bacillolysin; conditions: cited from earlier work
[10] = system: P. aeruginosa (Clinical Isolate VB7623); assay: pyoveridine development and planktonic biofilm in 96-well plate; type: cell-based, Pseudomonas aeruginosa; conditions: after 48 h
Protocol: FIG. 9: Comparison of the development of pyoveridine (dark grey background in circular light grey structure, i.e. the plate wells) during growth of P. aeruginosa (Clinical Isolate VB7623 from tracheal secrete, assessed as 4MRGN strain [EUCAST]) in presence (lower rectangle) and absence (upper rectangle) of the M4-metalloprotease inhibitor IMPIα (73 μM; NB-Medium No. 5), and different Gentamycin concentrations (32; 8; 4; 2; 1; 0.5; 0.25; 0.125 μg/ml) in a 96-well plate after 48 h. Pyoveridine is not expressed in the concurrent presence of IMPI and Gentamycin, not even at gentamycin concentrations as low as 0.125 μg/
FIG. 15: Comparison of the development of planctonic biofilm and pyoveridine (grey colour in the wells) during growth of P. aeruginosa (clinical isolate VB7623 from tracheal secrete, assessed as 4MRGN strain [EUCAST]) in the presence (black outlined rectangle) and absence (double outlined rectangle) of the M4-metalloprotease inhibitor IMPI (60 μM; NB-Medium No. 5) in a 96-well plate after 48 h.
as §1

[11] = target: T2, pseudolysin; conditions: cited from earlier work
[12] = system: P. aeruginosa; assay: synthesis of siderophore pyoverdine; type: cell-based, Pseudomonas aeruginosa; conditions: IMPIα together with the antibiotic gentamycin
[13] = target: thermolysin (Bacillus thermoproteolyticus, UniProt P00800); conditions: cited from earlier work
[14] = target: T1, MMP2; conditions: cited from earlier work

T2 sequence (P14756 198-498): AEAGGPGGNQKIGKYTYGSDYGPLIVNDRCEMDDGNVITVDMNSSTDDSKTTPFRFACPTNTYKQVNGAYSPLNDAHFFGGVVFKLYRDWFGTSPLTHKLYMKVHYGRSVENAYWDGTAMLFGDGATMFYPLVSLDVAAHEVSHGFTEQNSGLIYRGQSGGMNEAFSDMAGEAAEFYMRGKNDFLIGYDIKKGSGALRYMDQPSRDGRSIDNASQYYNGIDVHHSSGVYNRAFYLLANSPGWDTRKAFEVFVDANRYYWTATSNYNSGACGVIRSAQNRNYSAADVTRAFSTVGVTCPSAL
Sequence of thermolysin (P00800 233-548): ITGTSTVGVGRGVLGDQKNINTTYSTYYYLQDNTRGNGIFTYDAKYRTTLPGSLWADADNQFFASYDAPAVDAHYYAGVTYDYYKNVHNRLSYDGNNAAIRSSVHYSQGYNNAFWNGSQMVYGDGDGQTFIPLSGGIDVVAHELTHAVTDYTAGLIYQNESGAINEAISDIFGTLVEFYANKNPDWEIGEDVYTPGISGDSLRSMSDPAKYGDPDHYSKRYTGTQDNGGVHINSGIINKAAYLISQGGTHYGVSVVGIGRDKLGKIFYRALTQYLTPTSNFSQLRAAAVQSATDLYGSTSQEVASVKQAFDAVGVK

CNC(=O)[C@H](Cc1c[nH]c2ccccc12)NC(=O)[C@@H](CC(=O)NO)CC(C)C [GM6001]
reduction of rate of in vitro cell growth ([1]; after 4 days): 30.7%
reduction of rate of in vitro cell growth ([1]; after 7 days): 37.4%
MMP-2 activity normalized to cell number [2]: not statistically different
decrease of migration [3]: 21.4%

NC(=O)C(Cc1ccc(O)cc1)NC(=O)C(Cc1ccccc1)NC(=O)CS (stereo not drawn) [N-mercaptoacetyl-Phe-Tyr-amide]
Ki [4]: 41 nM

Gentamicin [Gentamycin]
growth rate ([5]; low concentrations of gentamycin, after 26 h in NB-medium): enhance growth
growth rate ([5]; very low concentrations of gentamycin): no effect
MIC [6]: 8 µg/mL

B1: IMPIα: insect metalloproteinase inhibitor from G. mellonella, 69 amino acids; M4-metalloprotease inhibitor (protein, listed as Galleria mellonella)
chain: IVLICNGGHEYYECGGACDNVCADLHIQNKTNCPIINIRCNDKCYCEDGYARDVNGKCIPIKDCPKIRS
inhibition [7]: negligible inhibition
biofilm formation [8]: biofilm formation is prohibited
IC60 [9]: 0.86 nM
planctonic biofilm ([10]; IMPI 60 μM, no antibiotic): no plantonic biofilm can be observed
pyoveridine secretion ([10]; IMPI 60 μM, no antibiotic, NB-Medium No. 5): secreted less
pyoveridine expression ([10]; IMPIα 73 μM with Gentamycin down to 0.125 μg/ml, NB-Medium No. 5): not expressed
IC60 [11]: 81.66 nM
synthesis of pyoverdine [12]: inhibited synergistically
IC60 [13]: 0.62 nM
inhibition [14]: negligible inhibition
